These results are taken from article PMC8776730 (Nature Communications, 2022).

A short description of series [1]: Critical assembly concentration (CAC) by pyrene fluorescence probe. The format is physicochemical. The source says:
In order to study the molecular design and their assembly behavior, we modular designed and synthesized seven molecules (Table 1), which respectively were BIVA probe: M1 (mPEG-GPAKLVFFGC(IR783)GRGD); the non- FAP-α tailoring molecule: M2 (mPEG-AGGKLVFFGC(IR783)GRGD) scrambled response tailoring motif of Gly-Pro-Ala with Ala-Gly-Gly; the non-labeling molecule of M1: M3 (mPEG-GPAKLVFFGCGRGD) removed IR783 labeling; FAP-α tailoring residue of M1: R-M1 (AKLVFFGC(IR783)GRGD); the non-targeting molecule: M4 (mPEG-GPAKLVFFGC(IR783)GDTG) scrambled targeting tailoring motif of Arg-Gly-Asp with Asp-Thr-Gly; the non-labeling molecule of M2: M5 (mPEG-AGGKLVFFGCGRGD) removed IR783 labeling; FAP-α tailoring residue of M3: R-M3 (AKLVFFGCGRGD). All the synthesized procedure (Supplementary Fig. 1) and characterizations of these seven molecules can be found in SI (Supplementary Figs. 2–8). […] Without IR783 labeling, molecules of M3 and M5 decreased the CAC value in solution relative to M1 and M2, which could be attributed to the proximity of the steric hindrance of hydrophilic IR783 to the self-assembly motif (Supplementary Fig. 9). […] The CAC was quantitatively calculated by fluorescence probe of pyrene.

Series [2] has as its target T1, FAP-α (Homo sapiens, UniProt Q12884).
T1 construct: purchased R&D SYSTEM
T1 sequence (Q12884 1-760): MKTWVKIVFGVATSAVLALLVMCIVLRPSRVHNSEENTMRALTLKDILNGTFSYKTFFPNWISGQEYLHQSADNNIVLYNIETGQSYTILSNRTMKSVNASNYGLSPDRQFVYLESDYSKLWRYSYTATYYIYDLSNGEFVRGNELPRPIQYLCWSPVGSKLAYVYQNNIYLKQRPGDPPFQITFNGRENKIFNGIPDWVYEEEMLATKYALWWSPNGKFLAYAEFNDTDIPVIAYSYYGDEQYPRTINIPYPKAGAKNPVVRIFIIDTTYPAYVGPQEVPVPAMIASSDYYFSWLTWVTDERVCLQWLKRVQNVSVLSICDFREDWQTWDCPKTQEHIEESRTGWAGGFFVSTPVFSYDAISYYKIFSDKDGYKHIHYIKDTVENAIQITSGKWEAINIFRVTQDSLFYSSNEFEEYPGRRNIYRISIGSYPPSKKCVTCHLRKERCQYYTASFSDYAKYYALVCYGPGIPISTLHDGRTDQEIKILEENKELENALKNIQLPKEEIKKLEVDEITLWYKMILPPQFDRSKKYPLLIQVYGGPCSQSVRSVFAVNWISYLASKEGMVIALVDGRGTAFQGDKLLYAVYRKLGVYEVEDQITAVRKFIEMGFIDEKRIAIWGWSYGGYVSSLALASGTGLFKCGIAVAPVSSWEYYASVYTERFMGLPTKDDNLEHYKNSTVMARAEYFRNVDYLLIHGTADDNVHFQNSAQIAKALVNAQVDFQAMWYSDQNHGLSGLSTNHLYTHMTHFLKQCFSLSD
Briefly: FAP-α tailoring (cleavage) followed by HPLC and MALDI-TOF. The class given is biochemical. The conditions noted are these: 100 μM molecule, FAP-α 50 μM, 12 h; buffer 50 mM Tris, 1 M NaCl, 1 mg/mL BSA, pH 7.5; HPLC (M3, M5), MALDI-TOF (M1). The source says:
To further investigate the FAP-α specific tailoring and BIVA probe assembly in situ simultaneously (Fig. 4a), the high-performance liquid chromatography (HPLC), TEM, and matrix-assisted laser desorption/ionization time-of-flight (MALDI-TOF) mass spectrometry were applied for the characterizations purpose. To specify the cutting of the response tailoring motif (Gly-Pro-Ala), pre-synthesized molecules of R-M3, M3 and M5 were set as controls. […] Comparing the residues peaks with R-M3, the primary sharp peak at 27.4 min can be identified by the R-M3 control (27.6 min). […] The retention time of M1 after co-incubation with inactivated FAP-α was similar to that of M3 (Supplementary Fig. 14). After hydrolyzed by FAP-α, the residues of M1 in situ assembled into nanofibers structures under the complex buffer (Fig. 4c and Supplementary Fig. 15). […] In order to further evaluate the specificity of M1 for different enzymes, including FAP-α, pepsin, pancreatin, lipase, and BSA, we used ThT (Thioflavin T) as a detection probe (Fig. 4e).
Fig. 4 The FAP-α specific molecule tailoring and inducing in situ assembly. a The illustration the working mechanism of BIVA probe based on FAP-α catalytic hydrolysis. b HPLC curves of M3 and M5 after incubation with FAP-α in buffer. R-M3, M3 and M5 were synthesized controls. The TEM image (c), and the MALDI-TOF (d), results of M1 after tailoring by FAP-α in buffer, the red arrows represent the assembled fibrils of M1 after incubation with FAP-α. e The enzyme specificity of M1 in buffer. Buffer: 50 mM Tris, 1 M NaCl, 1 mg/mL, BSA, pH 7.5; Concentration of M1 and M3: 100 μM; Concentration of FAP-α: 50 μM; incubation time: 12 h. […]

Regarding mPEG-GPAKLVFFGC(IR783)GRGD [M1], the “Critical assembly concentration (CAC)” value in series [1] (aqueous solution, analyzed based on pyrene fluorescence) was more than 500 µM. The “tailoring (cleavage) by FAP-α” value in series [2] was “cut into two parts of R-M1 and PEG residue”.

On to “mPEG-GPAKLVFFGCGRGD [M3, the non-labeling molecule of M1 (no IR783)]”, for which the “pyrene I1/I3” value in series [1] (conc 100 μM) is recorded as 1.163; in series [1] (conc 200 μM), 1.158; in series [1] (conc 300 μM), 1.141; in series [1] (conc 400 μM), 1.131; in series [1] (conc 500 μM), 1.152; in series [1] (conc 600 μM), 1.067. In addition, the “pyrene I1/I3” value in series [1] (conc 700 μM) is 1.052; in series [1] (conc 800 μM), 1.029; in series [1] (conc 900 μM), 0.978. Besides, in series [2], the “tailoring (cleavage) by FAP-α” value is “totally cleaved”.
